Results: patent US20260069689A1 (Regeneron, published 2026)

Target: SARS-COV-2 RBD extracellular domain expressed with a C-terminal myc-myc-hexahistidine tag (SARS-CoV-2)
Assay: SPR (Biacore), mAb captured by anti-human Fc, RBD-mmH in solution, 25 C

| Binder | Kd | koff | kon | t½ |
| --- | --- | --- | --- | --- |
| mAb15158 (antibody, V domains shown) VH: EVQLVESGGGLVQPGGSLRLSCAASGFSFSSNWMSWVRQAPGKGLEWVGNINQDGSEKYYVDSVEGRFTISRDNAKKSLYLQMNSLRAEDTAVYYCARDLGVLWFGDFVDWGQGALVTVSS VL: DIQMTQSPSSLSASVGDRVTITCRASQAISNSLAWYQQKPGKAPKLLLYAASTLESGVPSRFSGSGSGTDYTLTISSLQPEDFATYYCLQYYGSPRTFGQGTKVEIKR | 0.779 nM | 8.12e-05 s⁻¹ | 104000 M⁻¹ s⁻¹ | 142 min |
| mAb14312 (antibody, V domains shown) VH: EVQLVESGGGLVQPGGSLRLSCAASGFTVSRSYMTWVRQAPGKGLEWVSVIFTGGRTDHADSVKGRFTISRHNSKNTLYLQMNSLRTEDTAVYYCARVAIVGATGAFDIWGQGTMVTVSS VL: QSVLTQPPSVSGAPGQRVTISCTGSSSNIGAGDDVHWYQQLPGTAPKLLIYGNSNRPSGVPDRFSGSKSGTSASLAITGLQAEDEADYYCQSYDSSLSGSVVFGGGTKLTVLG | 0.606 nM | 0.000929 s⁻¹ | 1.53e+06 M⁻¹ s⁻¹ | 12.4 min |
| mAb14283 (antibody, V domains shown) VH: QVQLQESGPGLVKPSGTLSLTCDVSGGSISSNNWWSWVRQRPGKGLQWIGEIYHNENTNYNPSLKSRVIMSIDKSKNQFSLKLTSVTAADTAVYYCARGDVLDWFDPWGQGTLVTVSS VL: QSALTQPASVSGSPGQSTTISCTGTSSDVGGYNYVSWYQQYPGKAPKLMIYDVTNRPSGVSHRFSGSKSGNTASLTISGLQAEDEADYYCSSYTSSSTVIFGGGTKLTVLG | 1.08 nM | 0.00158 s⁻¹ | 1.46e+06 M⁻¹ s⁻¹ | 7.3 min |
| mAb14294 (antibody, V domains shown) VH: EVQLVESGGGLVQPGGSLRLSCAASGFTFSNHWMDWVRQAPGKGLVWVSRINSDGSSTDYADSVRGRFTMSRDNAKNTLYLQMSSLRAEDTAVYYCAREGMIFGAVIIPGWYFDLWGRGALVTVSS VL: EIVLTQSPGTLSLSPGERATLSCRASQSVSSSQLAWYQQKPGQAPRLLIYGASSRATGIPDRFSGSGSGTDFTLTISRLEPEDFAVYYCQQYDSFGQGTKLEIKR | 0.914 nM | 0.000548 s⁻¹ | 600000 M⁻¹ s⁻¹ | 21.1 min |
| mAb15157 (antibody, V domains shown) VH: EVQLVESGGALVQPGGSLRLSCAASGFPFTIYAMTWVRQAPGKGLEWVSVITGSGDSTYYADSVKGRFTISRDNSKNTLYLQMNSLRAEDTAVYYCVKTGEGFFYYYYGMDVWGQGTTVTVSS VL: QSVLTQPPSVSAAPGQKVTISCSGSSSNIGNSYISWYQQLPGTAPKLLIYVNNKRPSGIPDRFSGSKSGTSATLGITGLQTGDEADYYCGTWDSSLSAGVFGSGTKVTVLG | 4.49 nM | 0.00125 s⁻¹ | 278000 M⁻¹ s⁻¹ | 9.3 min |
| mAb15150 (antibody, V domains shown) VH: EVQLVETGGGLIQPGGSLRLSCAAPGFIVSSNYMSWVRQAPGKGLEWVSLLYPGGSTYYADSVKGRFTISRDNSKNTLYLQMNSLRADDTAVYYCARVLPIVEDHFDYWGQGTLVTVSS VL: DIQLTQSPSFLSASVGDRVTITCRASQGMSSYLAWYQKKPGKAPKLLIYGATILQSGVPSRFSGSGSGTEFTLTISSLQPEDFATYYCQQLNSDPLYMYTFGQGTKLEIKR | 0.0594 nM | 4.61e-05 s⁻¹ | 774000 M⁻¹ s⁻¹ | 251 min |
| mAb15164 (antibody, V domains shown) VH: EVQLVESGGGLVQPGGSLRLSCAASGFAVSSNYMTWVRQAPGKGLEWVATIYSGDSTYYADSVKGRFTISRHNSKNTLSLQMNSLRADDTAIYYCARLSGVLSGTYNGAFDIWGQGTMVTVSS VL: QSALTQPASVSGSPGQSITISCTGTSSDFGNYNIVSWYQQHPGQAPKVMIYEGNKRPSGVSNRFSGSKSGHTASLTISGLQAEDEADYYCSSYAGSSTWVFGGGTKLTVLG | 1.53 nM | 0.000349 s⁻¹ | 228000 M⁻¹ s⁻¹ | 33.1 min |
| mAb15165 (antibody, V domains shown) VH: EVQLVESGGGLVQPGGSLRLSCAASGFTVSSNYMSWVRQAPGKGLEWVSAIYSGDSTYYADSVKGRFTISKDNSKNTLYLQMNSLRGEDTAVYYCARLGGALQAYDGAFDYWGQGTLATVSS VL: QSALTQPASVSGSPGQSITISCTGTSSDFGSYNLVSWYQQHPGKAPKLMIYEGNKRPSGVSIRFSGSKSGNTASLTISGLQAEDEADYYCSSYAGSSTWVFGGGTKLTVLG | 0.393 nM | 0.000212 s⁻¹ | 539000 M⁻¹ s⁻¹ | 54.6 min |
| mAb15166 (antibody, V domains shown) VH: EVQLVESGGGLVQPGGSLRLSCAASGFTVTSNYMSWVRQAPGKGLEWVSAIYSGESTYYADSVKGRFTISRDSSKNTLYLQMNSLRVEDTAVYYCASIHDYSNYVGGFDPWGQGTLVTVSS VL: QSALTQPASVSGSPGQSITISCTGPSSDFGSYNLVSWYQQHPGKAPKLMIYEGTKRPSGVSNRFSGSKSGNTASLTISGLQAEDEADYYCSSYAGSSTWVFGGGTKLTVLG | 21.7 nM | 0.00535 s⁻¹ | 246000 M⁻¹ s⁻¹ | 2.2 min |
| mAb15161 (antibody, V domains shown) VH: EVQLVESGGGLVQPGGSLRLSCAASGFTFSSYEMNWVRQAPGKGLEWVSYISSSGSILYYADSVKGRFTASRDNAKNSLYLQMNSLRAEDTGVYYCARREYQLLRPFEFWGQGTLVTVSS VL: not shown | 1.35 nM | 0.000234 s⁻¹ | 173000 M⁻¹ s⁻¹ | 49.3 min |
| mAb15156 (antibody, V domains shown) VH: QLQLQESGPGLVKSSETLSLTCTVSASITGSTYYWGWIRQPPGKGLEWIGSIYYSGTTYYKASLKSRVTISVDTSKNQFSLKLTSVTVADTAVYYCVSHLLGNYHKYGMDVWGQGTTVTVSS VL: not shown | 4.18 nM | 0.00121 s⁻¹ | 289000 M⁻¹ s⁻¹ | 9.6 min |
| mAb15151 (antibody, V domains shown) VH: QVQLVESGGGVVQPGRSLRLSCAASGFVFNSYGMHWVRQAPGKGLEWVAVLWYEGSKNYYADSVKGRFTISRDNSKNTLYLQMNSLRAEDTAVYYCARHGSGSFFGYYLDYWGQGTLVTVSS VL: DIQMTQSPSSLSASVGDRVTITCRASHNINDFLNWYQQKPGKAPRLLIYAASSLQSGVPSRFSGSGSGTDFTLTISSLQPEDFATYYCQESYTTPPTFGQGTKLEIKR | 3.89 nM | 0.000778 s⁻¹ | 200000 M⁻¹ s⁻¹ | 14.8 min |
| mAb14258 (antibody, V domains shown) VH: QLQLQESGPGLVKPSETLSLICTGSGDSISSSHYYWGWIRQPPGKGLEWIGSTYFSGSTYYNPSLKSRVSISVDTSKNQVSLKLISVTAADTAVYYCAREMGATLGDYWGPGTLVTVSS VL: QSVLTQPPSASGTPGQRVTISCSGSSSNIGNNYVYWYQQFPGTTPRLLIYRNNERPSGVPDRFSGSKSGTSASLVISGLRSEDEADYYCAAWDDSLSAHYVFGTGTKVTVLG | 0.854 nM | 0.00161 s⁻¹ | 1.89e+06 M⁻¹ s⁻¹ | 7.2 min |
| mAb15159 (antibody, V domains shown) VH: EVQLVESGGGLVQPGGSLRLSCAASGITVSSNYMTWVRQAPGKGLEWVSLIYSGGSTFYADSVRGRFTISRDNSKNTLYLQMNSLRAEDTAVYYCARDLVVYGMDVWGQGTTVTVSS VL: DIQLTQSPSSLSASVGDRVTITCRASQGISSYLAWYQQKPGKAPKLLIYAASTLQSGVPSRFSGSGSGTDFTLTISSLQPEDFATYYCQHLNSDPHTFGQGTKLEIKR | 2.66 nM | 0.00013 s⁻¹ | 48900 M⁻¹ s⁻¹ | 88.8 min |
| mAb15170 (antibody, V domains shown) VH: EVQLVESGGGLVQPGGSLRLSCAATGITVSSNYMSWVRQAPGKGLEWVSLIYSGGSTFYADSVKGRFTISRHNSKNTLYLQMSSLRAEDTAVYYCARDLVDFGMDVWGQGTTVTVSS VL: DIQLTQSPSSLSASVGDRVTITCRASQGISNYLAWYQQKPGKAPKLLIYAASTLQSGVPSRFSGSGSGTDFTLTISSLQPEDFGTYYCQQLNSDSPTFGQGTKVEIKR | 0.1 nM | 1.53e-05 s⁻¹ | 200000 M⁻¹ s⁻¹ | 756 min |
| mAb15162 (antibody, V domains shown) VH: EVQLVETGGGLIQPGGSLRLSCAASEFIVSRNYMSWVRQAPGKGLEWVSLIYSGGSTYYADSVKGRFTISRDNSKNILYLQMNSLRAEDTAVYYCARDRGGISDYWGQGTLVTVSS VL: DIQMTQSPSSLSASVGDRVTITCQASQDINKYLNWFQQKPGKAPKLLIYDASNLETGVPSRFSGSGSGTDFTFTISSLQPEDIATYYCQQYDNLPRTFGQGTKLEIKR | 7.3 nM | 0.00085 s⁻¹ | 116000 M⁻¹ s⁻¹ | 13.6 min |
| mAb15163 (antibody, V domains shown) VH: EVQLVETGGGLIQPGESLRLSCAASGFIVSTNYMNWVRQAPGKGLEWVSVIYRGGSTYYADSVKGRFTISRDNSKNTLFLQMNSLRAEDTAVYYCARGHEDFDYDTPASGAFDIWGQGTMVTVSS VL: QSALTQPPSASGSPGQSVTISCTGTSSDVGGHNYVSWYQQHPGKAPKVMIYEVSKRPSGVPDRFSGSKSGNTASLTVSGLQAEDEADYYCSSYAGSNKFVFGTGTKVTVLG | 0.0779 nM | 1.67e-05 s⁻¹ | 218000 M⁻¹ s⁻¹ | 693 min |
| mAb14284 (antibody, V domains shown) VH: QITLKESGPTLVKPTQTLTLTCTFSGFSFSTSGVGVGWIRQPPGKTLEWLALIYWDDDKRYSPSLKSRLTITKDTSKNQVVLTMTNMDPVDTATYFCAHHGIPTIFGYWGQGALVTVSS VL: QSALTQPASVSGSPGQSITISCTGTSSDLGVFNYVSWYQQHPGKAPKLMIYEVTNRPSGVSNRFSGSKSGNTASLTISGLQAEDEADYYCSSYTTSSTVFGGGTKLTVLG | 0.824 nM | 0.000549 s⁻¹ | 666000 M⁻¹ s⁻¹ | 21 min |
| mAb14235 (antibody, V domains shown) VH: QITLKESGPTLVKPTQTLTLTCTFSGFSLNTGGVGVGWIRQPPGNALEWLALIYWDDDKRYNPSLKTRLTISKDTSKNQVVLTMTNMDPVDTATYFCAHLTIAVIVDFWGQGTLVTVSS VL: QSALTQPASVSGSPGQSITISCTATSSDVGTYNYVSWFQHHPGKAPKLMIYEVTNRPSGVSNRFSGSKSGNTASLTISGLQAEDEADYYCSSYTTTSIVFGGGTKLTVLG | 1.33 nM | 0.00105 s⁻¹ | 789000 M⁻¹ s⁻¹ | 11 min |
